Series [1] concerns the target T1, CD19 (Homo sapiens, UniProt P15391 20-291). Description: electrochemical (current-volt, SWCN-modified IDE); 100 nM CD19; Aptamer immobilized on APTMS-SWCN surface, PEG-COOH blocked; 30 min protein incubation; washes 10 mM PBS pH 7.4; room temperature; 0-2 V in 0.1 V steps. Particulars: protein: recombinant.
For a further series, the target named is CD33 antigen (UniProt P20138 18-259). In words: electrochemical (current-volt, SWCN-modified IDE); 100 nM CD33; Aptamer immobilized on APTMS-SWCN surface, PEG-COOH blocked; 30 min protein incubation; washes 10 mM PBS pH 7.4; room temperature; 0-2 V in 0.1 V steps.
CD33 antigen, sequence (P20138 18-259): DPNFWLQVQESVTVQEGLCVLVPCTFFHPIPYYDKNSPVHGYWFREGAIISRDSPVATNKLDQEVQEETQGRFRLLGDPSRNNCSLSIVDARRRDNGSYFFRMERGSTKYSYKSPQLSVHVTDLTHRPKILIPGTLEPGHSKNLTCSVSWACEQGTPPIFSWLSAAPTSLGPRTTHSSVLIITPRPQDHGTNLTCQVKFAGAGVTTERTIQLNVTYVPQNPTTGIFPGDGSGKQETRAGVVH
The target in series [2] is T1, CD19. In words: electrochemical (current-volt, SWCN-modified IDE); 10-100 nM CD19; LOD 10 nM; near saturation above 60 nM; Aptamer immobilized on APTMS-SWCN surface, PEG-COOH blocked; 30 min protein incubation; washes 10 mM PBS pH 7.4; room temperature; 0-2 V in 0.1 V steps. Particulars: protein: recombinant.

Consider two molecules from publication PMC11387253, “High sensitive aptasensing chronic myeloid leukemia on circular electrode-modified by single-walled carbon nanotube”.

T1 sequence (P15391 20-291): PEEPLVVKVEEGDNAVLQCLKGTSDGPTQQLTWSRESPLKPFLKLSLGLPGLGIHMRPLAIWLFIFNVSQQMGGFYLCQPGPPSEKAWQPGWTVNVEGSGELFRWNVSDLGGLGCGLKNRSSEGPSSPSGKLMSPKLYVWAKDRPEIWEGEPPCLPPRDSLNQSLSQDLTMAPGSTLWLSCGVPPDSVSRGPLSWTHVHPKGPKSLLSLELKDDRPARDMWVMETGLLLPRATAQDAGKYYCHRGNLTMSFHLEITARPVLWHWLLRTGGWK

B1: complementary aptamer (ssDNA)
DNA: ACGCACACATCACACAGACAAGAGGAAAAAAACCAACGACGAGAATCCCTAAACCCGCC
modifications: 5' C6-COOH
As for B1, the binding result with CD19 [1] is “no binding”.

B2: CD19 aptamer (ssDNA)
DNA: TGCGTGTGTAGTGTGTCTGTTCTCCTTTTTTTGGTTGCTGCTCTTAGGGATTTGGGCGG
modifications: 5' C6-COOH
On to B2, for which the binding result is reported as “no binding” in the series with CD33 antigen and “binds” with CD19 [2].
